In US20170361126A1, “Compositions and Methods for Inducing Nanoparticle Mediated Microvascular Embolization of Tumors” (Vindico NanoBioTechnology, LLC, priority 2011, published 2017) one finds plasma clearance, serum chemistry panel and P50 data, which are given here for two molecules.

Series [1] in a line: Biodistribution/pharmacokinetics after IV injection in 4T1 tumor-bearing mice. The conditions noted are these: via the kidneys and into the bladder. In kind it is in vivo, balb/c mice. How it is done: In example studies, 0.5×10^6 to 1×10^6 4 T1 mouse mammary carcinoma cells were injected into the mammary fat pads of balb/c mice. Once the tumors were greater than 5 mm in diameter, mice were randomized and treated via tail vein catheter with PEMs (at 100 μL of 2.5 mg/mL Mb, corresponding to 50 mg/mL polymer suspensions), empty polymersomes (at equivalent polymer doses), and NIR-Mb (at equivalent myoglobin doses) (n=5 per group). NIR-Mb and PEM were reduced to their oxy-myoglobin form prior to treatment, following protocols discussed above. Mice were sacrificed at 24 h (for biodistribution/pharmacokinetic studies) or at 6-9 days (for histology and toxicology assessment following tumor efficacy studies). […]
For all biodistribution studies, NIR imaging of polymersomes, NIR-Mb and PEM was conducted with an MS® Kinetic Imaging System (Perkin Elmer, AeX=745 nm, Aem=810-875 nm) equipped with a Xenogen XGI-8 gas anesthesia system. Fluorescence images were analyzed with Living Image® 4.2 software by measuring radiant efficiency of regions of interest (ROIs). […]
For the pharmacokinetic studies, 15-100 μL blood samples were drawn (using a 5.5 mm lancet, Goldenrod) from the submandibular vein of the mouse and collected directly into heparinized capillary tubes (Kimble). […] The total radiant efficiency of the plasma in each capillary tube was measured in a region of interest of consistent dimensions. […]

Series [2] can be described thus: Serum chemistry panel and liver histology of treated tumor-bearing mice. The conditions noted are these: n=5 mice per treatment; FIG. 21. It is filed as in vivo. How it is done:
In example studies, 0.5×10^6 to 1×10^6 4 T1 mouse mammary carcinoma cells were injected into the mammary fat pads of balb/c mice. Once the tumors were greater than 5 mm in diameter, mice were randomized and treated via tail vein catheter with PEMs (at 100 μL of 2.5 mg/mL Mb, corresponding to 50 mg/mL polymer suspensions), empty polymersomes (at equivalent polymer doses), and NIR-Mb (at equivalent myoglobin doses) (n=5 per group). NIR-Mb and PEM were reduced to their oxy-myoglobin form prior to treatment, following protocols discussed above. Mice were sacrificed at 24 h (for biodistribution/pharmacokinetic studies) or at 6-9 days (for histology and toxicology assessment following tumor efficacy studies). In both cases, EF-5 was used to stain for hypoxia and Hoechst solution for perfusion. Tumors were collected at sacrifice. Immunofluorescence (IF) was carried out to image EF-5 and Hoechst distribution throughout the tumors. The same tumor sections were also stained with hematoxylin and eosin (H&E) for immunohistologic (IHC) analysis. Blood was collected via cardiac puncture at sacrifice; plasma was isolated and stored at −80° C. for later analyses.
FIG. 21 provides results of a serum chemistry panel done for a set of tumor-bearing mice injected with each of the following treatments (n=5 mice per treatment): NIR-myoglobin (control), empty polymersomes (control), and PEMs. […]

A short description of series [3]: Oxygen equilibrium binding curves (Hemox Analyzer, Hill model). To be noted: partial pressure of O2 at 50% saturation; 37° C. As for the experimental part: Oxygen equilibrium binding curves of PEM and free Mb dispersions may be measured using a Hemox™ Analyzer at physiological temperature (37° C.). In brief, samples may be allowed to saturate to a pO2 of 147 mm Hg using compressed air and then deoxygenated using a compressed nitrogen stream. UV-Vis absorbance measurements of oxygenated and deoxygenated samples may be recorded as a function of pO2 via dual wavelength spectroscopy. Oxygen-PEM/myoglobin equilibrium curves may be fit to a four-parameter (A0, A∞, P50, n) Hill model:
in which A0 and A∞ represent the absorbance at 0 mm Hg and at full O2 saturation, respectively. The pO2 represents the partial pressure of O2, and P50 represents the partial pressure of O2 where PEM/Mb is 50% saturated with oxygen. Lastly, ‘n’ represents the cooperativity coefficient of PEM/Mb. […] The lower O2 affinity (higher P5o) of PEM than free myoglobin may be attributed to the shielding effect of the polymersome membrane, which was further found to delay the kinetics of O2 binding to PEM.

B1: NIR-Mb: near-infrared fluorophore (IRDye800cw NHS) covalently attached to the lysines on horse skeletal myoglobin; negative control (conjugate, UniProt P68082 2-154, looked up)
Myoglobin: GLSDGEWQQVLNVWGKVEADIAGHGQEVLIRLFTGHPETLEKFDKFKHLKTEAEMKASEDLKKHGTVVLTALGGILKKKGHHEAELKPLAQSHATKHKIPIKYLEFISDAIIHVLHSKHPGDFGADAQGAMTKALELFRNDIAAKYKELGFQG
modifications: IRDye800CW NHS on lysines
notes: near-infrared fluorophore (IRDye800cw NHS) covalently attached to the lysines on horse skeletal myoglobin; negative control
With B1, in series [1], the plasma clearance entry is “extremely rapid plasma clearance”. Moreover, in series [2], the serum chemistry panel result was “no consistently elevated levels for any parameter”.

B2: free Mb: free (unencapsulated) myoglobin, a cytoplasmic heme protein (protein, UniProt P02144 2-154, looked up)
Myoglobin: GLSDGEWQLVLNVWGKVEADIPGHGQEVLIRLFKGHPETLEKFDKFKHLKSEDEMKASEDLKKHGATVLTALGGILKKKGHHEAEIKPLAQSHATKHKIPVKYLEFISECIIQVLQSKHPGDFGADAQGAMNKALELFRKDMASNYKELGFQG
As for B2, the P50 in series [3] is roughly 2 mm Hg.
